The record followed here is patent US20160251695.

The chains are these.
T1: α-fructosyl-valyl-histidyl-leucyl-threonyl-proryl-glutamic acid
T1 chain: VHLTPE

B1: fructosyl peptide oxidase derived from Phaeosphaeria nodorum (protein)
chain: MAPSRANTSVIVVGGGGTIGSSTALHLVRSGYTPSNVTVLDAYPIPSSQSAGNDLNKIMGVSLRNPVDLQLALEARQMWNEDELFKKFFHNTGRLDCAHGEKDIADLKSGYQALVDAGLDATNEWLDSEDEILKRMPLLSRDQIKGWKAIFSKDGGWLAAAKAINAVGEYLRDQGVRFGFYGAGSFKAPLLAEGVCIGVETVDGTRYYADKVVLAAGAWSPTLVELHEQCVSKAWVYGHIQLTPEEAARYKNSPVVYNGDVGFFFEPNEHGVIKVCDEFPGFTRFKMHQPFGAKAPKRISVPRSHAKHPTDTIPDASDVSIRRAIATFMPQFKNKKMFNQAMCWCTDTADAALLICEHPEWKNFVLATGDSGHSFKLLPNIGKHVVELLEGTLADDLAHAWRWRPGSGDALKSRRSAPAKDLADMPGWNHDKPRANL
B2: fructosyl peptide oxidase derived from Eupenicillium terrenum (protein)
chain: MAHSRASTKVVVVGGGGTIGSSTALHLIRSGYTPSNITVLDVYKTPSLQSAGHDLNKIMGIRLRNGPDLQLSLESLDMWQNDELFKPFFHQVGMIDCSSSKEGIENLRRKYQTLLDAGIGLEKTNVWLESEDEILAKAPNFTREQVKGWKGLFCTDGGWLAAAKAINAIGIFLQDKGVKFGFGDAGTFQQPLFAADGKTCIGLETTDGTKYFADKVVLAAGAWSPTLVDLEDQCVSKAWVFAHIQLTPKEADAYKNVPVVYDGEYGFFFEPDEYGVIKVCDEFPGFSRFKLHQPYGAASPKMISVPRSHAKHPTDTYPDASEVTIRKAIARFLPEFKDKELFNRTMCWCTDTADANLLICEHPKWKNFILATGDSGHSFKLLPNIGKYVVELLEGSLSQEMAGAWRWRPGGDALRSRRGAPAKDLAEMPGWKHDAHL
B3: EFP-T5-R62D (protein)
chain: B2 chain with R62D
B4: ketoamine oxidase derived from Neocosmospora vasinfecta (protein)
chain: MTTPRKETTVLIIGGGGTIGSSTALHLLRAGYTPSNITVLDTYPIPSAQSAGNDLNKIMGIRLRNKVDLQLSLEARDMWRNDALFRPFFHNTGRLDCESSAEGVEGLRREYQKLVEAGVGLEETHEWLDSEEAILEKAPLLQREEIEGWKAIWSEEGGWLAAAKAINAIGEELQRQGVRFGFGGAGSFKRPLFADDGTTCIGVETVDGTQYHADKVVLAAGAWSPALVDLEEQCCSKAWVYAHMQLTPEEAAVYKGCPVVYHGDVGFFFEPNENGVIKVCDEFPGFTRFKQHQPYGAPAPKPVSVPRSHAKHPTDTYPDASEESIKRAVSTFLPRFKDKPLFNRALCWCTDTADSALLICEHPRWKNFILATGDSGHSFKLLPIIGKHVVELVEGRLADDLAEAWRWRPGQGDARKSIRAAPAKDLADMPGWKHDQDSESR
B5: NvFX-62D/106K/110L (protein)
chain: B4 chain with R62D, G106K, E110L
B6: CFP-T7-H14 (protein)
chain: MTSNRADTRVIVVGGGGTIGSSTALHLVRSGYAPANITVLDTFEIPSAQSAGHDLNKIMGIDLRNKVDLQMSLEARQMWKEDELFQPFFHNTGRMDCEHTPEGIEDLKKLYQRLHDAGAGLEKTHAWLDNEDEILSKMPLLQRDQIQGWKAIWSQDGGWLAAAKAINAIGQFLKERGVKFGFGGAGSFKQPLFDDEGTTCIGVETADGTKYYADKVVLAAGAWSPTLVDLEDQCCSKAWVYAHIQLTPEEAAEYKGVPVVYNGEFGFFFEPDEFGVIKVCDEFPGFSRFKEHQPYGAPSPKRISVPRSHAKHPTDTYPDASEVSIKKAIATFLPRFQDKELFNRALCWCTDTADAALLMCEHPKWKNFILATGDSGHSFKILPNVGKYVVELIEGRLPEEMAYQWRWRPGGDALKSRRAAPPKDLADMPGWKHDPKL
B7: CFP-T7-H37 (protein)
chain: B6 chain with L63H, D68N, E102K, D106K, R113K, A355S, A356T
B8: CFP-T7-H28 (protein)
chain: B6 chain with L63H, E102K, D106K, R113K
B9: CFP-T7-H29 (protein)
chain: B6 chain with L63H, D106K, R113K, A419K
B10: CFP-T7-H24 (protein)
chain: B6 chain with L63A, D106K, R113K
B11: CFP-T7-H26 (protein)
chain: B6 chain with L63H, D106K, R113K
B12: CFP-T7-H25 (protein)
chain: B6 chain with L63D, D106K, R113K
B13: CFP-T7-H27 (protein)
chain: B6 chain with L63K, D106K, R113K
B14: CFP-T7-H36 (protein)
chain: B6 chain with L63H, D68N, E102K, D106K, R113K, A355S
B15: fructosyl amino acid oxidase derived from Aspergillus oryzae RIB40 (protein)
chain: MTVTKSSSILIIGAGTWGASTALHLGRRGYTNVTVLDPYTVPSAISAGNDVNKIISSGQYSNKKDEIEVNEILAEEAFKGWTTDPLFKPYYHDTGVVMSACSSAGLDRLGIRVRPEEEPDVSEVTKPEHFRQLAPAVLKGNFPGWRGYHIRSNAGWAHARNALVAAIREAEKLGVKFVTGTQGRVITLIFENNDVKGAVTADGKIWRAEQTVLCAGANAAQFLDFKDQLRPTAWTLAHIRLKPEERALYKNLPVIFNIEKGFFFEPDEERGEIKICDEHPGYTNMVKSADGHLTSLPFEKTQIPKESEARVRALLSETMPQLADRPFSFARVCWCADTANREFIIDRHPEHPSLVLGCGASGRGFKYLPSIGNLIVDAIEDKVPEKVHKLTRWSPDIAVDRKWRDTLGRFGGPNRVMDFHDVKEWTNVQNKDTAKL

Numbering of substitutions follows the chain as printed. Numbers in names are those of the source.

In the first series the target is T1, α-fructosyl-valyl-histidyl-leucyl-threon ….
Settings: not given
B1 registered a Specific activity (U/mg), 1 mM αF6P of 0.0091 U/mg.

The protein B2 yielded a Specific activity (U/mg), 1 mM αF6P of 0 U/mg.

B3 showed a Specific activity (U/mg), 1 mM αF6P of 0.0043 U/mg.

B4 had a Specific activity (U/mg), 1 mM αF6P of 0 U/mg.

On to B5, for which the Specific activity (U/mg), 1 mM αF6P was 0.003 U/mg.

B6: the αF6P oxidation activity ratio (relative value (CFP-T7-H6 = 100)) came to 183.

B7 yielded a Specific activity (U/mg), 1 mM αF6P of 7.19 U/mg.

In the case of B8, the αF6P oxidation activity ratio (relative value (CFP-T7-H26 = 100)) amounted to 117 and the αF6P oxidation activity ratio (relative value (CFP-T7-H28 = 100)) was found to be 100.

For B9, the αF6P oxidation activity ratio (relative value (CFP-T7-H26 = 100)) amounted to 102.

B10: the αF6P oxidation activity ratio (relative value (CFP-T7-H20 = 100)) stood at 123.

With B11, the αF6P oxidation activity ratio (relative value (CFP-T7-H20 = 100)) stood at 142 and the αF6P oxidation activity ratio (relative value (CFP-T7-H26 = 100)) came to 100.

For B12, the αF6P oxidation activity ratio (relative value (CFP-T7-H20 = 100)) worked out at 24.

Regarding B13, the αF6P oxidation activity ratio (relative value (CFP-T7-H20 = 100)) was 7.

B14: the Specific activity (U/mg), 1 mM αF6P came to 4.65 U/mg.

Take B15: the Specific activity (U/mg), 1 mM αF6P stood at 0.0022 U/mg.

The series is the same for the next values; noted with them: scale: relative value.
B6 gave a αF6P oxidation activity of 4.22.

B8 showed a αF6P oxidation activity of 134.

B9: the αF6P oxidation activity came out at 111.

In the case of B10, the αF6P oxidation activity was 86.7.

B11: the αF6P oxidation activity was 84.3.
